Square brackets hold non-standard residues; d marks the D form. Dab = NCC[C@H](N)C(=O)O; Dap = NC[C@H](N)C(=O)O
B1: D87(Lys1-6Arg-1) (peptide)
peptide: Ac-[dK][dL][dR][dS][dL][dL][dR][dT][dL][dS][dR][dA][dK][dA][dA][dK][dL][dR][dT][dL][dL][dR][dA][dL][dS][dR]-NH2
SMILES: CC(=O)N[C@H](CCCCN)C(=O)N[C@H](CC(C)C)C(=O)N[C@H](CCCNC(=N)N)C(=O)N[C@H](CO)C(=O)N[C@H](CC(C)C)C(=O)N[C@H](CC(C)C)C(=O)N[C@H](CCCNC(=N)N)C(=O)N[C@@H](C(=O)N[C@H](CC(C)C)C(=O)N[C@H](CO)C(=O)N[C@H](CCCNC(=N)N)C(=O)N[C@H](C)C(=O)N[C@H](CCCCN)C(=O)N[C@H](C)C(=O)N[C@H](C)C(=O)N[C@H](CCCCN)C(=O)N[C@H](CC(C)C)C(=O)N[C@H](CCCNC(=N)N)C(=O)N[C@@H](C(=O)N[C@H](CC(C)C)C(=O)N[C@H](CC(C)C)C(=O)N[C@H](CCCNC(=N)N)C(=O)N[C@H](C)C(=O)N[C@H](CC(C)C)C(=O)N[C@H](CO)C(=O)N[C@H](CCCNC(=N)N)C(N)=O)[C@H](C)O)[C@H](C)O
notes: De novo designed 26-residue amphipathic alpha-helical antimicrobial peptide; Arg at 3, 7, 11, 18, 22, 26; Lys13/Lys16 specificity determinants; also called D87(6Arg-1); D87-6 Arg-1
B2: D105(K13A/K16A)-(Lys1-6Dap-1) (peptide)
peptide: Ac-[dK][dL][Dap][dS][dL][dL][Dap][dT][dL][dS][Dap][dA][dA][dA][dA][dA][dL][Dap][dT][dL][dL][Dap][dA][dL][dS][Dap]-NH2
SMILES: CC(=O)N[C@H](CCCCN)C(=O)N[C@H](CC(C)C)C(=O)N[C@@H](CN)C(=O)N[C@H](CO)C(=O)N[C@H](CC(C)C)C(=O)N[C@H](CC(C)C)C(=O)N[C@@H](CN)C(=O)N[C@@H](C(=O)N[C@H](CC(C)C)C(=O)N[C@H](CO)C(=O)N[C@@H](CN)C(=O)N[C@H](C)C(=O)N[C@H](C)C(=O)N[C@H](C)C(=O)N[C@H](C)C(=O)N[C@H](C)C(=O)N[C@H](CC(C)C)C(=O)N[C@@H](CN)C(=O)N[C@@H](C(=O)N[C@H](CC(C)C)C(=O)N[C@H](CC(C)C)C(=O)N[C@@H](CN)C(=O)N[C@H](C)C(=O)N[C@H](CC(C)C)C(=O)N[C@H](CO)C(=O)N[C@@H](CN)C(N)=O)[C@H](C)O)[C@H](C)O
notes: Control AMP without specificity determinants (Ala13/Ala16); also called D105(A13/A16-6Dap-1); D105(K13A/K16A-6 Dap-1)
B3: D105(Lys1-6Dap-1) (peptide)
peptide: Ac-[dK][dL][Dap][dS][dL][dL][Dap][dT][dL][dS][Dap][dA][dK][dA][dA][dK][dL][Dap][dT][dL][dL][Dap][dA][dL][dS][Dap]-NH2
SMILES: CC(=O)N[C@H](CCCCN)C(=O)N[C@H](CC(C)C)C(=O)N[C@@H](CN)C(=O)N[C@H](CO)C(=O)N[C@H](CC(C)C)C(=O)N[C@H](CC(C)C)C(=O)N[C@@H](CN)C(=O)N[C@@H](C(=O)N[C@H](CC(C)C)C(=O)N[C@H](CO)C(=O)N[C@@H](CN)C(=O)N[C@H](C)C(=O)N[C@H](CCCCN)C(=O)N[C@H](C)C(=O)N[C@H](C)C(=O)N[C@H](CCCCN)C(=O)N[C@H](CC(C)C)C(=O)N[C@@H](CN)C(=O)N[C@@H](C(=O)N[C@H](CC(C)C)C(=O)N[C@H](CC(C)C)C(=O)N[C@@H](CN)C(=O)N[C@H](C)C(=O)N[C@H](CC(C)C)C(=O)N[C@H](CO)C(=O)N[C@@H](CN)C(N)=O)[C@H](C)O)[C@H](C)O
notes: Designed 26-residue AMP; Lys13/Lys16 specificity determinants; also called D105(6Dap-1); D105-6 Dap-1
B4: D86(K13A/K16A)-(Lys1-6Dab-1) (peptide)
peptide: Ac-[dK][dL][Dab][dS][dL][dL][Dab][dT][dL][dS][Dab][dA][dA][dA][dA][dA][dL][Dab][dT][dL][dL][Dab][dA][dL][dS][Dab]-NH2
SMILES: CC(=O)N[C@H](CCCCN)C(=O)N[C@H](CC(C)C)C(=O)N[C@@H](CCN)C(=O)N[C@H](CO)C(=O)N[C@H](CC(C)C)C(=O)N[C@H](CC(C)C)C(=O)N[C@@H](CCN)C(=O)N[C@@H](C(=O)N[C@H](CC(C)C)C(=O)N[C@H](CO)C(=O)N[C@@H](CCN)C(=O)N[C@H](C)C(=O)N[C@H](C)C(=O)N[C@H](C)C(=O)N[C@H](C)C(=O)N[C@H](C)C(=O)N[C@H](CC(C)C)C(=O)N[C@@H](CCN)C(=O)N[C@@H](C(=O)N[C@H](CC(C)C)C(=O)N[C@H](CC(C)C)C(=O)N[C@@H](CCN)C(=O)N[C@H](C)C(=O)N[C@H](CC(C)C)C(=O)N[C@H](CO)C(=O)N[C@@H](CCN)C(N)=O)[C@H](C)O)[C@H](C)O
notes: Control AMP without specificity determinants (Ala13/Ala16); also called D86(A13/A16-6Dab-1); D86(K13A/K16A-6 Dab-1)
B5: D84(Lys1-6Lys-1) (peptide)
peptide: Ac-[dK][dL][dK][dS][dL][dL][dK][dT][dL][dS][dK][dA][dK][dA][dA][dK][dL][dK][dT][dL][dL][dK][dA][dL][dS][dK]-NH2
SMILES: CC(=O)N[C@H](CCCCN)C(=O)N[C@H](CC(C)C)C(=O)N[C@H](CCCCN)C(=O)N[C@H](CO)C(=O)N[C@H](CC(C)C)C(=O)N[C@H](CC(C)C)C(=O)N[C@H](CCCCN)C(=O)N[C@@H](C(=O)N[C@H](CC(C)C)C(=O)N[C@H](CO)C(=O)N[C@H](CCCCN)C(=O)N[C@H](C)C(=O)N[C@H](CCCCN)C(=O)N[C@H](C)C(=O)N[C@H](C)C(=O)N[C@H](CCCCN)C(=O)N[C@H](CC(C)C)C(=O)N[C@H](CCCCN)C(=O)N[C@@H](C(=O)N[C@H](CC(C)C)C(=O)N[C@H](CC(C)C)C(=O)N[C@H](CCCCN)C(=O)N[C@H](C)C(=O)N[C@H](CC(C)C)C(=O)N[C@H](CO)C(=O)N[C@H](CCCCN)C(N)=O)[C@H](C)O)[C@H](C)O
notes: Designed 26-residue AMP; Lys at 3, 7, 11, 18, 22, 26; Lys13/Lys16 specificity determinants; also called D84(6 Lys-1); D84-6 Lys-1

Experiments:
serum proteins = assay: cell-based or functional assay
[1] = biological target: the molecule itself; assay: RP-HPLC temperature profiling, self-association (dimerization/oligomerization) against random coil control RC

Binder | MIC (µM) against A. baumannii strain 649 in 25% human serum (no serum: 0.7) (serum proteins) [µM] | PA (self-association parameter) [1] [min] | MIC (µM) against A. baumannii strain 649 in 25% human serum (no serum: 0.8) (serum proteins) [µM] | fold loss of antimicrobial activity in 25% human sera (serum proteins) [fold] | fold change of MIC in 25% human sera against no serum (serum proteins) [fold] | MIC (µM) against A. baumannii strain 649 in 25% human serum (no serum: 0.3) (serum proteins) [µM]
B1 | 1.3 | 5.9 | – | – | – | –
B2 | – | 18 | 12.5 | 15 | – | –
B3 | – | 3.7 | 3 | – | 4 | –
B4 | – | 12.5 | 3 | 4 | – | –
B5 | – | 5.9 | – | – | – | 0.3
